From article PMC4858151, “Phosphorylation of Human Choline Kinase Beta by Protein Kinase A: Its Impact on Activity and Inhibition” (PLoS ONE, 2016)

What was measured:
Format in all cases: biochemical, Homo sapiens
purified protein = substrate: Nc1ncnc2c1ncn2[C@@H]1O[C@H](COP(=O)(O)OP(=O)(O)OP(=O)(O)O)[C@@H](O)[C@H]1O; test: purified protein; conditions: MgCl2
[1] = substrate: NCCO; test: Michaelis-Menten kinetics (Km), PK-LDH coupled assay; conditions: MgCl2, ATP
[2] = substrate: C[N+](C)(C)CCO; test: as above; conditions: MgCl2, ATP choline binding site

B1: choline kinase beta (CKβ) (Homo sapiens) (protein)
chain: AAEATAVAGSGAVGGCLAKDGLQQSKCPDTTPKRRRASSLSRDAERRAYQWCREYLGGAWRRVQPEELRVYPVSGGLSNLLFRCSLPDHLPSVGEEPREVLLRLYGAILQGVDSLVLESVMFAILAERSLGPQLYGVFPEGRLEQYIPSRPLKTQELREPVLSAAIATKMAQFHGMEMPFTKEPHWLFGTMERYLKQIQDLPPTGLPEMNLLEMYSLKDEMGNLRKLLESTPSPVVFCHNDIQEGNILLLSEPENADSLMLVDFEYSSYNYRGFDIGNHFCEWVYDYTHEEWPFYKARPTDYPTQEQQLHFIRHYLAEAKKGETLSQEEQRKLEEDLLVEVSRYALASHFFWGLWSILQASMSTIEFGYLDYAQSRFQFYFQQKGQLTSVHSSS
notes: purified recombinant unphosphorylated CKβ
Purified protein
  Km: 650 ± 30 µM
  Vmax: 72.5 µmol/min/mg
  kcat: 21.5 s⁻¹
  kcat/Km: 39100 M⁻¹ s⁻¹
[1]
  Km: 260 ± 10 µM
  Vmax: 14.3 µmol/min/mg
[2]
  Km: 420 ± 60 µM
  Vmax: 64.3 µmol/min/mg
  kcat: 48.2 s⁻¹
  kcat/Km: 115000 M⁻¹ s⁻¹

B2: choline kinase beta (CKβ) (Homo sapiens; S39D/S40D) (protein)
chain: AAEATAVAGSGAVGGCLAKDGLQQSKCPDTTPKRRRADDLSRDAERRAYQWCREYLGGAWRRVQPEELRVYPVSGGLSNLLFRCSLPDHLPSVGEEPREVLLRLYGAILQGVDSLVLESVMFAILAERSLGPQLYGVFPEGRLEQYIPSRPLKTQELREPVLSAAIATKMAQFHGMEMPFTKEPHWLFGTMERYLKQIQDLPPTGLPEMNLLEMYSLKDEMGNLRKLLESTPSPVVFCHNDIQEGNILLLSEPENADSLMLVDFEYSSYNYRGFDIGNHFCEWVYDYTHEEWPFYKARPTDYPTQEQQLHFIRHYLAEAKKGETLSQEEQRKLEEDLLVEVSRYALASHFFWGLWSILQASMSTIEFGYLDYAQSRFQFYFQQKGQLTSVHSSS
notes: purified S39D/S40D CKβ
Purified protein
  Km: 585.3 ± 30 µM
  Vmax: 67.3 µmol/min/mg
  kcat: 21.3 s⁻¹
  kcat/Km: 37400 M⁻¹ s⁻¹
[1]
  Km: 570 ± 20 µM
  Vmax: 28.4 µmol/min/mg
  kcat: 45.3 s⁻¹
  kcat/Km: 98500 M⁻¹ s⁻¹
[2]
  Km: 460 ± 60 µM
  Vmax: 60.4 µmol/min/mg
  kcat: 45.3 s⁻¹
  kcat/Km: 98500 M⁻¹ s⁻¹
